Laboratory results: publication PMC2943728

Target: DNA polymerase beta (WT pol β) (UniProt P06746 1-335)
Experiment: EMSA

B1: 45AG 1-nt gapped DNA (dsDNA)
DNA 1: GCCTCGCAGCCGTCCAACCAAC
DNA 2: CAACCTCGATCCAATGCCGTCC
DNA 3: GGACGGCATTGGATCGAGGTTGAGTTGGTTGGACGGCTGCGAGGC
modifications: 5'-phosphate on downstream oligo and template
B1 gave a Kd of 78 nM.
